Measurements as given in the Human Domainome abundance scans (Beltran et al. 2025).

B1: Far upstream element-binding protein 1, residues 184 to 257; numbered along this chain, Q96AE4 (parent)
chain: GNAVQEIMIPASKAGLVIGKGGETIKQLQERAGVKMVMIQDGPQNTGADKPLRITGDPYKVQQAKEMVLELIRD

Variants of: B1
Assay: abundance fitness (aPCA) (normalised: wild type 0, dead -1); higher = more abundant; growth selection in yeast, the domain comes from the species named
Settings: Homo sapiens

Abundance fitness, by site and new letter:
L52: E -0.956 | Q -0.97 | G -0.886 | K -0.841 | W -0.738 | S -0.918 | N -0.746 | D -0.702 | T -0.878 | M -0.047 | I -0.055 | C -0.229 | A -0.807 | V -0.145 | H -0.853
G42: N -0.059 | I -0.052 | A -0.028 | W -0.33 | R -0.022 | Q -0.029 | M -0.084 | F -0.078 | S 0.009 | D -0.069 | L -0.158 | C -0.037 | E 0.007 | H -0.082 | K 0.049 | P -0.059 | Y 0.055
R53: T 0.008 | E -0.116 | C -0.111 | K -0.025 | D -0.616 | M -0.031 | P -0.941 | A -0.14 | Q -0.009 | W -0.205 | G -0.52 | S -0.148 | H -0.046 | L -0.075 | F -0.116 | N -0.257 | I -0.049
G47: R -0.096 | S -0.001 | V -0.054 | E -0.038 | T -0.018 | F -0.014 | M -0.043 | L -0.069 | D -0.043 | A -0.02 | N -0.034 | K 0.061 | Q -0.027 | I -0.168 | W -0.157 | P -0.108 | H -0.167
T46: C -0.058 | F -0.085 | A -0.073 | Y -0.115 | L -0.038 | V -0.004 | I -0.062 | W -0.136 | P -0.012 | Q -0.022 | H -0.055 | K -0.066 | S -0.04 | M -0.028 | R -0.046 | G -0.024 | N -0.074
M36: N -0.712 | D -0.709 | Q -0.656 | W -1 | P -0.789 | H -0.81 | K -0.78 | T -0.585 | I -0.053 | E -0.582 | S -0.556 | C -0.239 | G -0.67 | R -0.747 | Y -0.786 | V -0.231
G56: C -1.08 | A -1.01
P51: N -0.049 | W -0.066 | D -0.358 | H -0.026 | Q -0.108 | A -0.011 | L -0.057 | C -0.005 | E -0.014 | F -0.077 | K -0.03 | R 0.007 | T -0.018 | Y -0.059 | I -0.086 | M 0.028
P43: A 0.023 | W -0.022 | M -0.016 | Q -0.057 | N -0.123 | L -0.053 | E -0.01 | Y -0.003 | D -0.055 | C -0.049 | T -0.119 | G 0.05 | F -0.079 | I -0.011 | S 0.04 | H 0.003 | R -0.012 | K 0.064
D41: C -0.034 | Y -0.139 | R -0.052 | E 0.009 | H -0.048 | N 0.047 | A -0.077 | V -0.023 | K -0.007 | G -0.009 | F -0.189 | Q -0.006 | T -0.052 | L -0.095 | M -0.089
M38: A -0.183 | T -0.21 | E -0.163 | P -0.287 | D -0.392 | V -0.007 | Y -0.094 | C -0.166 | H -0.13 | R -0.444 | F 0.037 | L 0.035 | G -0.324 | W -0.032 | I -0.036 | S -0.205
K50: I -0.068
